Our source for the Kd and IC50 values is paper PMC12813973, “Consequences of Peptide Macrocyclization Revealed by Virus-Inspired β‑Hairpin Mimetics” (ACS Chemical Biology, 2025).

Read-outs that look alike come from different tables or passages of the source.

Assay [1] concerns the target T1, 018 minimal fragment (peptide 1) 11-30 (Vaccinia virus), P17356.
Assay [2] concerns the target T1, 018 minimal fragment (peptide 1) 11-30 …. Briefly: ITC. Background: Isothermal titration calorimetry measures the heat released or taken up as one component is titrated into another.
Assay [3] has the same target. Kind of assay: competition.

T1 sequence (P17356 11-30): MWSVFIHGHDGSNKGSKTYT

B1: STAT1, P42224 (protein)
chain: SQWYELQQLDSKFLEQVHQLYDDSFPMEIRQYLAQWLEKQDWEHAANDVSFATIRFHDLLSQLDDQYSRFSLENNFLLQHNIRKSKRNLQDNFQEDPIQMSMIIYSCLKEERKILENAQRFNQAQSGNIQSTVMLDKQKELDSKVRNVKDKVMCIEHEIKSLEDLQDEYDFKCKTLQNREHETNGVAKSDQKQEQLLLKKMYLMLDNKRKEVVHKIIELLNVTELTQNALINDELVEWKRRQQSACIGGPPNACLDQLQNWFTIVAESLQQVRQQLKKLEELEQKYTYEHDPITKNKQVLWDRTFSLFQQLIQSSFVVERQPCMPTHPQRPLVLKTGVQFTVKLRLLVKLQELNYNLKVKVLFDKDVNERNTVKGFRKFNILGTHTKVMNMEESTNGSLAAEFRHLQLKEQKNAGTRTNEGPLIVTEELHSLSFETQLCQPGLVIDLETTSLPVVVISNVSQLPSGWASILWYNMLVAEPRNLSFFLTPPCARWAQLSEVLSWQFSSVTKRGLNVDQLNMLGEKLLGPNASPDGLIPWTRFCKENINDKNFPFWLWIESILELIKKHLLPLWNDGCIMGFISKERERALLKDQQPGTFLLRFSESSREGAITFTWVERSQNGGEPDFHAVEPYTKKELSAVTFPDIIRNYKVMAAENIPENPLKYLYPNIDKDHAFGKYYSRPKEAPEPMELDGPKGTGYIKTELISVSEVHPSRLQTTDNLLPMSPEEFDEVSRIVGSVEFDSMMNTV
Take B1: the Kd in assay [1] was determined as 73 nM; in assay [2], 533 nM. Further, the half-inhibitory concentration (IC50) in assay [3] was 4300 nM.

For orientation: Kd means the free concentration of one partner at which half of the binding sites on the other are occupied at equilibrium, for simple one-to-one binding. Broadly, the IC50 is the concentration at which inhibition is half-maximal.
